# Experimental data reported in the DeepSol protein solubility set.
# Test: soluble on expression in E. coli; label from the status in PepcDB or PDB records
row,Sequence,soluble on expression in E. coli
1,MAHHHHHHMSIYIQLTHDLSGTVTAVTIGDWILGILKEKNIQEYEVFFKKFLHIYQKQDKDSECNNRSEIFSLLLSASDFVFETLVETKKNNKIKVIIDNKESVKSYNEFYKEVEEYFVILISILQLEFKSVEELNNATNNFIKAIKNYNEFPELRLKILQLLYNSFNVNFSFRFPTFIAILQFCSQNNIFHNMLPYIKYIDDWIKEWNISTREKRHIYLIISQELKKLKKYEESYEHLKKHIYYYDNEHKDILNHPNSINASIELIVDAININNNIYFHEIINLHAIQNLQFIPQHQPLFDLLLIFYKYTINEFLVFKNKHGSDFFNKYNIDIQTCESKIYLLSIISLFNDHKVQNIQFISKQLNISVVQIENILVAAIGSGVIDAKIDQINQTVHMKTTILRNFDDENWKQLNNQITKYINNVQKILELTKHANK,not soluble
2,MGSDKIHHHHHHMNDKEFGQRVRQLRESASMTREQFCDDELELSVRQLTRIEAGASKPTFSKIQYIATRLGMGLYELMPDYVSLPERYSKLKFDVLRTPTYGNEDLAEKRDAMMTEIYDDYYDELPEEEKIVVDTLCSLFDVLDTDSQEYGKEILDDYLHQSYHRSKLSINDLMILRLFIEHCQLEDLSVGTSNYALFTDLIEKLPQSIYDVHSESLFIVRDLFLAIVRILFSKELYNHIPVYIEKIENIMELSQDFQKKPILNLVKWKYELKVQHNHEIAERYYNEAITFASLLNQFHLKEKLQMEWEKDTQSLKR,not soluble
3,MSIESSATPTTPNAEALQLNSTEVRILGCLIEKQATNPETYPLTLNALVIACNQKTSRDPVMNLTQGQVGQSLRALEGRGLTRLVMGSRADRWEHKVDKGLELVPAQVILTGLLLLRGPQTVSELLTRSNRMHDFEDSEQVVHQLERLIARGLATLVPRQSGQREDRYMHLIGDPEDLQDLLAARQQAPERGNAASPAATQRLDELEARIAALEERLARLE,not soluble
4,MPKVISQKEFNILSRTKERVNFQIVYTKQRNGLHKAAKEYFFKDKDFTIIEDTPDTPDQPDGPCITKGPKEPGGPEEPNGPDKPEDPKDPDTPDVSEGPKEQGGQKDPGGPDDPSEGKQKVSKPDKYVTHRELDEKLKDFATKADFKRVEDKVDVLFELQKTQGEQIKVQGEQIKAQGKQIEQLTETVKVQGEQIRAQGEQIKAQSEEIKEIKVEQKAQGEQIKELQVEQKAQGKTLQLILKTLEKMNERLEKLESKLEHHHHHH,not soluble
5,MYFKMITSAPWVLYPEIGEDPSKKWIFREPKISDGDGIYSLIADCPPLDMNSSYCNFLQSTHFSKTSILVEHKGDIAGFISGYQKPDEQDVLFIWQVAVSPRFRGNGLAFRMLKELLEREALSEVKSVETTITEDNQASWALFKKLDAMNGNHGQVSTFLDEKAHFKGKHDTEFLYRIPLK,not soluble
6,MSLQTPDTATTAPYLLAGAPTFDLSISQFREDFNSQNPSLPLNEFRAIDSSPDKANLTRAASKINENLYASTALERGTLKIKSIQMTWLPIQGPEQKAAKAKAQEYMAAVIRTLTPLMTKTQSQKKLQSLLTAGKNKRYYTETEGALRYVVADNGEKGLTFAVEPIKLALSESLEGLNKEGHHHHHH,soluble
7,MGSDKIHHHHHHMSISPNPNIAEIAALFGETSRAAILTSLLDGRLHTASDLAYRAGITPQTASFHLGKLAEGGLVSVEKHGRHRYYQLANGEVASLLESFLVISPQPEVKSLKQSAQMVMLQKARTCYDHLAGKLGVGITDSMLDSGYLKKDGKEFVLTEAGVQFVINFGLDLESIKKKRRSLSHACLDWSERSYHLAGALGNQLMQHFFDLGWITPLPGIRAVKVTDQGKAGFKQYFNISL,not soluble
8,SVFPQQTGQLAELQPQDRAGARASWMPMFQRRRRRDTHFPICIFCCGCCHRSKCGMCCKT,not soluble
9,MAKKVAICTLLYSRDYLPGALTLAYQLQKLLKHAVVEDEITLCLLIEKKLFGDEFKPQEIALIRSLFKEIIIIEPLKDQEKSIEKNKANLELLKRPELSHTLLKARLWELVQFDQVLFLDADTLPLNKEFFEILRLYPEQTRFQIAAVPDIGWPDMFNTGVLLLIPDLDMATSLQDFLIKTVSIDGADQGIFNQFFNPICNYSKEVLHKVSPLMEWIRLPFTYNVTMPNYGYQSSPAMNFFQQHIRLIHFIGTFKPWSRNTTDYDDHYYQLWRSTQRELYSECHLSNYFTHLQLGNIETETNFYHEPPCLQDLLNHGKRENQKHVDLDITSVDRNASQKSTAEKHDIEKPTSKPQSAFKFDWESTDYLDRVQRAFPKPDT,soluble
10,PATDIMFPHSSMELVEGIYKHNQVADYFNKVLADTLLAYLDERLKHDPEASIRIMEIGAGTGGTSAGIFEKLKPYQKHINEYCYTDLSKAFLLHAEKEYGAENPYLTYQLFDVEKPIDQQEFEAGGYDVVIAANVLHATKNIRQTLRHTKAVMKNNGMLLLNEMAGNSLFPHITFGLLEGWWLYEDPAVRIPGCPGLHPDSWKAALESEGFESVFF,not soluble
11,MIGVVIPAHNEEQLLADCLRCALKAASHPELNEDVAILVVLDSCSDGSLDIARQFAVQHLQLQVRNVGRARAAGAQLLLQAGARWLSCTDADSRVPEDWLVAQLALGADAVCGTVTVDRWSESFEPQARIRYHDAYQDSDGHRHIHGANLGISAAAYVRAGGFEALACHEDVQLVRQLQRCGASIAWSRHPQVITSGRLDSRAKGGFGDYLKGLNEPCAGLLEHHHHHH,not soluble
12,IPGPGFTAGAQGSCSLRCGAQDGLCSCHPTCSGLGTCCEDFLDYCLEILPSSGSMMGGKDFVVQHLKWTDP,soluble
13,MGSDKIHHHHHHMPMRKEQQSRPDLRVLKSLMVCATIAASLILHSPSLMAAEEATGATSTAPSACSINPSEKLKNLFTEVKQYLGIRYRFGGDTPSGFDCSGFVRFMFNKEFNVNLPRSSREMATIGTRIDRNELRPGDLVFFKNAEDRINHVGIFVGNDTFVHSSLSKGITRDTLNESYYSKRFATGVRILDIQGNRIPDDFNNLFDESNNGNSPS,not soluble
14,MKLSAQSHASIASSLREAVDKYIADGERTVVTDIHLQPKQDSGELVIFNDDDEELSRTIIEEWVDYSEDDFYTIVERILRGEINALKDTGVLDKLAIMKPYSFVLVDEDRETVTELLLIDDEDTLLLNDELLKGLDEELDAFLKDLLEKLEHHHHHH,soluble
15,MAHHHHHHMEWVELHDVDPETMSLELPPDMLFGPLEFPKQMRFLLAALRADNELADGYLARVIIDRMDLSLDPPILSEGDFLAAGGKELLDFSVEDFTGTKSRAQRKHIFFQPDQFLQFINIIAAYPTLTEYFVNEKDGVELVFQAYRHSKNPYACVMAMRSLTLFSFTQAVDGTVERRILQSNGVKTIVDAYKQSTGDPTETRFPTLLLSSIMRHYPKEGGKEFIDADGVEAVVNNLNIARYKGIPQHIRVLHDAQRLPKQSIGKKSVDARLEEADFLGVAMGLLDTFPEFYEATGDLLKLLTRVVPAHADPLELLEYRAMPILSKYYVRWREDQSFQTDGTRTLVAKLFELMLNDKTCQRCYDPSVASYELLECLRTAKLAVKDEQEKRVMRFPDPQRQPASAAA,soluble
16,MGSDKIHHHHHHMGEKMLGIINATGSFPSLKKVTGHRSLAALPFGGRYRLIDFMLSNMVNSNIHSVAVFTSHKNRSLMDHVGSGKQWDLDRKRDGLFLFPPNCQCDQDEFGSFAHFRRHIDYFLRAREEYVVITNSHLVTALNFQAVLERHIHTAADITEVCHEGVSLQTYVLKKQLLLDLFDSYKDVEQYSLFDVVREKRGKSLHIATYEHTGYVAIIDSIESYYKHSLEILQPAIWKQLFKKEAPIFTKVKDEPPTRYVKGAVVKNTMIANGSIIEGEVENSVVSRSVKIGKGSIVRNSIIMQKSQIGDNCIIDGVIIDKDVKIGDGVVLKGNADEPYVVEKGSVQNSTINSYS,not soluble
17,SNAMSKDSESNLAQRQSQPKAHADLRINSHWIIPIENTTDHNLVSNILIDHCLLIKDGIILAIEPQSSCQIPATETLDLGQQVLMPGWVNAHGHAAMSLFRGLADDLPLMTWLQEHVWPAEAQHVDEHFVKQGTELAIAEMIQSGTTTFADMYFYPQQSGEAALAAGIRAVCFAPVLDFPTNYAQNADEYIRKAIECNDRFNNHPMNEQGLVQIGFGPHAPYTVSDEPLKEITMLSDQLDMPVQIHLHETDFEVSESLETFNKRPTQRLADIGFLNERVSCVHMTQVDDGDIKILQKTGASIIHCPESNLKLASGFCPIAKLSAANIPLAIGTDGAASNNDLDMFSETKTAALLAKGVSQDASAIPAIEALTMATLGGARALGIDDITGSLKPGKAADIQAIDLNTLSSQPVFDPVSHMVYCTKSTQVSHVWVNGRCLLKNGELTTLNEETLINHAKAWASAIRTPIK,soluble
18,MGSDKIHHHHHHMEHIEKLNAVLKHIKTSFVGKDEIIDLLGISLIARENAFLLGPPGTAKSAIIRALSACISDGKNFEYLLTRFTEPGELFGPFDIRKLKEGDLVTNTEGMMPEASMVFLDEIFNANSAILNSLLTALNERIFRRGKETKKLPALMFIGASNVLPEDESLNALLDRFLIRARCDYVDTDLLEEVLVAGWNLETRNQNQKPAIAPAEIIELQQYAKQVDVSTVRRQYVDLIHNLRNTGIKISDRRAVKIQNLLAASAVMSNRKEVIPSDLWVLKHVWDTEEQIEILEGIINTIIEKDTNPLAHPQAQYNKTPNAEELIKEIIQLTEKWESGNLSFEEQNVVKDKLRYLQTRSNWIKNNEHKLHIQEKIESLWHKMLQTI,not soluble
19,MGSDKIHHHHHHMKFYNREKEVAELKRVQELAFTQNSRMIVVTGRRRIGKTSLIKEALKGTPTVYLFIGRKAESILVTDFVKIVRETLSIFVPEGIPTFTNLMQYLFEVGKTRAFNIVIDEFQEFYNIRPDVFSDMQNLWDEYKQETKINLVISGSVYSLMQKIFTDHNEPLFGRADNILCLRAFKIGVLKQIMEDLASGYSNDDLLALYTLTGGIPKYVELFCDNQALTIDKMYDFVFSENSLFIDEGRNLLITEFGKNYGTYFSILSEIANGHYTQGEIESALGGTAIGGYLSKLENVYNLITRERPIFAKPGTKKNVRYVIGDNFLNFWFKYIEQNRSYIELQNFDDLRQLAKADYPTYSGRVLEKYFKQKLAETGGFKEIGSWWETKSSIGKQRINSYEIDIVALKSSGKKALIAEVKRVPENNYSHTVFMEKVEHLKQKEMSKYDIETQVLGLKDM,not soluble
20,MGSDKIHHHHHHMTGLTEDLFGELLPPASPPQACVAGGGAPSPDKASRGKSVLPARPDPAIDALARRLPPNLYLGTSSWSYNGWNGLVYDGEYSDNLLSRKGLAAYSRHPLLRAAGIDRGFYGPIPLADYLSYAAQVPEQFRFLVKAPASVCDAWLRGSDGVGRLANAAFLDAEIAIRDFITPATSGLGAKCGPLLFQLSPLGSLANDAAAFLDRLDGFLSALPPLDPSITPHACYAVEMRDPVLLTPRYIKLLRRYGVRFCLSARDRLPPVHRQASAQALMDAEAPGPLVLRWMLHAGRPYEVAESIYAPFNRLVDEDPETRDAIADLVVRTLNAGQSATVIISNKAEGSAPLTCIRLAEAIAARL,not soluble
21,MALACTDSANSTFSRVDSPTSGPSDQLTTHDLDRHIEKLMRCELIAEQDVKTLCAKAREILAEEGNVQVIDSPVTICGDIHGQFYDLMELFKVGGPVPNTNYLFLGDFVDRGFYSVETFLLLLALKARYPDRMMLIRGNHESRQITQVYGFYDECLRKYGNASVWKHCTEVFDYLSLAAVIDGKVFCVHGGLSPSISTMDQIRVIDRKQEVPHDGPMCDLLWSDPEEGNVGWGLSPRGAGYLFGADASKTFCETNGVDLICRAHQLVMEGYKWHFNEKVLTVWSAPNYCYRCGNVAAILELDENLNKEFTIFEAAPQENRGAPAKKPHADYFL,not soluble
22,QTINKIDLQALEESQIDWAKYQPHQAVVLKARKQLRDHQQTALNATAAGLNDAERGKLIMACGTGKTFTSLKIAERLAGKGKRVLFLVPSLSLLSQTLTEWTQESETPLHSFAVCSDSDVGKKRKADEDTVQVFTHELRYPATTKADRLAAEMLKRHDAEHMSVVFSTYHSIDVISRAQHEYDLAAFDLVICDEAHRTTGATFDDDDESTFVRIHDVDYIRAIKRLYMTA,not soluble
